Measurements reported in patent publication US20250271449A1.

Assays:
[1] = molecular target: mitochondrial transcription factor B2 (TFB2M) protein (human) (UniProt Q9H5Q4); assay: in situ proximity ligation assay (anti-TFAM sc-376672 and anti-TFB2M 13676), fixed PBMCs from septic patients (n=10), mean
[2] = molecular target: mitochondrial transcription factor B2 (TFB2M) protein (human) (UniProt Q9H5Q4); assay: in situ proximity ligation assay (anti-TFAM sc-376672 and anti-TFB2M 13676), fixed PBMCs from healthy controls (n=20), mean

Chain of UniProt Q9H5Q4 (Q9H5Q4 44-396): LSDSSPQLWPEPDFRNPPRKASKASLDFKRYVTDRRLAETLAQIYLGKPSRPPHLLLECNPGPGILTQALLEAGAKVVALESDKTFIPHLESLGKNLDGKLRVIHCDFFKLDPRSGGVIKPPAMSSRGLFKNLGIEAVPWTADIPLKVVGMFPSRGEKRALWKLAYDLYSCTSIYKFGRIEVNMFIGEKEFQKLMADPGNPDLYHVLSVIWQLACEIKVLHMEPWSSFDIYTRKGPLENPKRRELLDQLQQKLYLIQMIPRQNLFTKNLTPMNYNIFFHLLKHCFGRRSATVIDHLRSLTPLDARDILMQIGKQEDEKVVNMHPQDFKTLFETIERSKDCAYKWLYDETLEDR

PLA signals per cell (signals per cell) [1]: 1.2 | PLA signals per cell (signals per cell) [2]: 4.5
Substance: mature mitochondrial transcription factor A (TFAM) protein (from UniProt Q00059 43-246)
